The record followed here is article PMC12739106, “Phosphate deficiency reduces nodule formation through a phosphate starvation response-like protein in Phaseolus vulgaris”.

This data set has as its target T1, PvPHR-L7 (formerly PvPHR1) (Phaseolus vulgaris, UniProt B4YEQ7 1-327).
T1 sequence: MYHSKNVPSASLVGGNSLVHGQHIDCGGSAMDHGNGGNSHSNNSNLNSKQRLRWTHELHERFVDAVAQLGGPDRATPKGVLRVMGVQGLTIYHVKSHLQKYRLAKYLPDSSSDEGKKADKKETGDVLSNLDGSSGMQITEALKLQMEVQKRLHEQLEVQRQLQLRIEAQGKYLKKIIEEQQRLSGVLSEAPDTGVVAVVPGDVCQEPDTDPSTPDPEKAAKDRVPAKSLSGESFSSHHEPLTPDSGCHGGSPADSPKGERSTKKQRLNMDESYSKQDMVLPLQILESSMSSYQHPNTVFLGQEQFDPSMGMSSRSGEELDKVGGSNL
The data set can be described thus: EMSA; poly(dI-dC); outcompeted by unlabeled same-sequence probe (50, 100 or 200 nM); LightShift Chemiluminescent EMSA kit, 1x binding buffer, 50 ng/ul poly(dI-dC), 1 unit protein, 0.1 'mmol' biotin probe, unlabeled competitor 5, 10, 20 'mmol' (legend: 50, 100, 200 nM); salt, pH and temperature not stated. The settings on record: protein: recombinant; tags: His (pDEST17, N-terminal); chain copies: 2; 5' implied by name; blunt. A general note: Mobility shift assays separate free from complexed probe on a gel.

B1: PvNIN promoter P1BS probe (dsDNA)
DNA 1: CAATTTCATTCTATAGCATATGCAACATTTTAGACAAAATCA
DNA 2: TGATTTTGTCTAAAATGTTGCATATGCTATAGAATGAAATTG
Regarding B1, the binding result is recorded as “binds”.

B2: PvTML promoter P1BS probe (dsDNA)
DNA 1: GAAATTAATATAAAAAGCATATACTAAAATTAAGCATATGTT
DNA 2: AACATATGCTTAATTTTAGTATATGCTTTTTATATTAATTTC
For B2, the binding result is “binds”.
